Substrate in data set [1]: OC[C@@H](O)[C@@H](O)[C@H](O)[C@H](O)CO
As to the kind of experiment: NAD+ reduction, crude extract of overexpressing yeast. It counts as biochemical, Saccharomyces cerevisiae. The conditions noted are these: 1.66 mM NAD+, 60 mM HEPES-NaOH pH 7.4. From the text:
NAD+ reduction, crude extract of overexpressing yeast on YNR073C

Substrate in data set [2]: OC[C@@H](O)[C@@H](O)[C@H](O)[C@H](O)CO
The data set is described as above. It counts as biochemical, Saccharomyces cerevisiae. Particulars: 1.66 mM NAD+, 60 mM HEPES-NaOH pH 7.4. The source says: NAD+ reduction, crude extract of overexpressing yeast on Dsf1
The source holds these as a separate data set.

Substrate in data set [3]: OC[C@@H](O)[C@@H](O)[C@H](O)[C@H](O)CO
Nature of the data set: cells, lysate or membranes. Particulars: labelled compound, EBY.VW4000 co-expressing YNR073C, 30 °C. Type of data set: cell-based, Saccharomyces cerevisiae.

Substrate in data set [4]: OC[C@@H](O)[C@@H](O)[C@H](O)[C@@H](O)CO
Nature of the data set: cells, lysate or membranes. It counts as cell-based, Saccharomyces cerevisiae. The conditions noted are these: labelled compound, EBY.VW4000 co-expressing SOR1, 30 °C, facilitated transport.

Substrate in data set [5]: OC[C@@H](O)[C@@H](O)[C@H](O)[C@@H](O)CO
Nature of the data set: NAD+ reduction, crude extract of overexpressing yeast. Particulars: 1.66 mM NAD+, 60 mM HEPES-NaOH pH 7.4. It counts as biochemical, Saccharomyces cerevisiae. From the text: (§1) NAD+ reduction, crude extract of overexpressing yeast on Sor1

Substrate in data set [6]: OC[C@@H](O)[C@@H](O)[C@H](O)[C@H](O)CO
The description is as above. Type of data set: biochemical, Saccharomyces cerevisiae. The conditions noted are these: 1.66 mM NAD+, 60 mM HEPES-NaOH pH 7.4.
Text: as §1
This is another data set of the same source.

Substrate in data set [7]: OC[C@@H](O)[C@@H](O)[C@H](O)[C@@H](O)CO
The data set is described as above. Type of data set: biochemical, Saccharomyces cerevisiae. The conditions noted are these: 1.66 mM NAD+, 60 mM HEPES-NaOH pH 7.4. The source says:
(§2) NAD+ reduction, crude extract of overexpressing yeast on Sor2
The source holds these as a separate data set.

Substrate in data set [8]: OC[C@@H](O)[C@@H](O)[C@H](O)[C@H](O)CO
The description is as above. Type of data set: biochemical, Saccharomyces cerevisiae. Particulars: 1.66 mM NAD+, 60 mM HEPES-NaOH pH 7.4.
Text: as §2
The source holds these as a separate data set.

Experimental findings from article PMC4800717, “Hxt13, Hxt15, Hxt16 and Hxt17 from Saccharomyces cerevisiae represent a novel type of polyol transporters” (Scientific Reports, 2016) are described below.

As a reminder, the Km is the substrate concentration at which the rate is half of its maximum.

Positions count from the first letter of the chain named. In names and notes the source's numbering stands.

B1: YNR073C (Saccharomyces cerevisiae S288C) (protein)
chain: MTKSDETTATSLNAKTLKSFESTLPIPTYPREGVKQGIVHLGVGAFHRSHLAVFMHRLMQEHHLKDWSICGVGLMKADALMRDAMKAQDCLYTLVERGIKDTNAYIVGSITAYMYAPDDPRAVIEKMANPDTHIVSLTVTENGYYHSEATNSLMTDAPEIINDLNHPEKPDTLYGYLYEALLLRYKRGLTPFTIMSCDNMPQNGVTVKTMLVAFAKLKKDEKFAAWIEDKVTSPNSMVDRVTPRCTDKERKYVADTWGIKDQCPVVAEPFIQWVLEDNFSDGRPPWELVGVQVVKDVDSYELMKLRLLNGGHSAMGYLGYLAGYTYIHEVVNDPTINKYIRVLMREEVIPLLPKVPGVDFEEYTASVLERFSNPAIQDTVARICLMGSGKMPKYVLPSIYEQLRKPDGKYKLLAVCVAGWFRYLTGVDMNGKPFEIEDPMAPTLKAAAVKGGKDPHELLNIEVLFSPEIRDNKEFVAQLTHSLETVYDKGPIAAIKEILDQV
notes: full-length ORF, p425H7 multicopy plasmid, overexpressed in yeast CEN.PK2-1C; crude extract
As for B1, in data set [1], the Michaelis-Menten constant (Km) is reported as 3.6 ± 0.5 mM and the Vmax was 0.40 ± 0.02 umol substrate converted per minute per.

B2: Dsf1 (Saccharomyces cerevisiae S288C) (protein)
chain: B1 chain
notes: as for B1
Consider B2, for which, in data set [2], the Michaelis-Menten constant (Km) is given as 2.9 ± 0.3 mM and the Vmax is listed as 0.90 ± 0.02 umol substrate converted per minute per.

B3: Hxt17 (Saccharomyces cerevisiae S288C) (protein)
chain: MQSSTESDRDIQDGPDADIHVAPPVEKEWSDGFDDNEVINGDNVEPPKRGLIGYLVIYLLCYPISFGGFLPGWDSGITAGFINMDNFKMNFGSYKHSTGEYYLSNVRMGLLVAMFSIGCAIGGLIFARLADTLGRRLAIVIVVLVYMVGAIIQISSNHKWYQYFVGKIIYGLGAGGCSVLCPMLLSEIAPTDLRGGLVSLYQLNMTFGIFLGYCSVYGTRKYDNTAQWRVPLGLCFLWTLIIIIGMLLVPESPRYLIECERHEEARASIAKINKVSPEDPWVLKQADEINAGVLAQRELGEASWKELFSVKTKVLQRLITGILVQTFLQLTGENYFFFYGTTIFKSVGLTDGFETSIVLGTVNFFSTIIAVMVVDKIGRRKCLLFGAAGMMACMVIFASIGVKCLYPHGQDGPSSKGAGNAMIVFTCFYIFCFATTWAPVAYIVVAESFPSKVKSRAMSISTACNWLWQFLIGFFTPFITGSIHFYYGYVFVGCLVAMFLYVFFFLPETIGLSLEEIQLLYEEGIKPWKSASWVPPSRRGIPSEESKTEKKDWKKFLKFSKGSD
notes: full-length ORF, p426H7 plasmid, expressed in hxt0 yeast EBY.VW4000 with YNR073C or SOR1
For the protein B3, in data set [3], the Km is recorded as 18.6 ± 4.3 mM.

B4: Hxt13 (Saccharomyces cerevisiae S288C) (protein)
chain: MSSAQSSIDSDGDVRDADIHVAPPVEKEWSDGFDDNEVINGDNVEPPKRGLIGYLVIYLLCYPISFGGFLPGWDSGITAGFINMDNFKMNFGSYKHSTGEYYLSNVRMGLLVAMFSIGCAIGGLIFARLADTLGRRLAIVIVVLVYMVGAIIQISSNHKWYQYFVGKIIYGLGAGGCSVLCPMLLSEIAPTDLRGGLVSLYQLNMTFGIFLGYCSVYGTRKYDNTAQWRVPLGLCFLWALIIIIGMLLVPESPRYLIECERHEEARASIAKINKVSPEDPWVLKQADEINAGVLAQRELGEASWKELFSVKTKVLQRLITGILVQTFLQLTGENYFFFYGTTIFKSVGLTDGFETSIVLGTVNFFSTIIAVMVVDKIGRRKCLLFGAAGMMACMVIFASIGVKCLYPHGQDGPSSKGAGNAMIVFTCFYIFCFATTWAPVAYIVVAESFPSKVKSRAMSISTACNWLWQFLIGFFTPFITGSIHFYYGYVFVGCLVAMFLYVFFFLPETIGLSLEEIQLLYEEGIKPWKSASWVPPSRRGISSEESKTEKKDWKKFLKFSKNSD
notes: as for B3
Take B4: the Km in data set [4] was found to be 20.4 ± 2.4 mM; in data set [3] (facilitated transport), 16.7 ± 2.9 mM.

B5: Sor1 (Saccharomyces cerevisiae S288C) (protein)
chain: MSQNSNPAVVLEKVGDIAIEQRPIPTIKDPHYVKLAIKATGICGSDIHYYRSGGIGKYILKAPMVLGHESSGQVVEVGDAVTRVKVGDRVAIEPGVPSRYSDETKEGRYNLCPHMAFAATPPIDGTLVKYYLSPEDFLVKLPEGVSYEEGACVEPLSVGVHSNKLAGVRFGTKVVVFGAGPVGLLTGAVARAFGATDVIFVDVFDNKLQRAKDFGATNTFNSSQFSTDKAQDLADGVQKLLGGNHADVVFECSGADVCIDAAVKTTKVGGTMVQVGMGKNYTNFPIAEVSGKEMKLIGCFRYSFGDYRDAVNLVATGKVNVKPLITHKFKFEDAAKAYDYNIAHGGEVVKTIIFGPE
notes: as for B1
B5: in data set [5], the Km was 11.8 ± 1.4 mM and the Vmax is 0.40 ± 0.01 umol substrate converted per minute per. Moreover, in data set [6], the Km is reported as 89.0 ± 37.5 mM and the Vmax is reported as 0.10 ± 0.02 umol substrate converted per minute per.

B6: Sor2 (Saccharomyces cerevisiae S288C) (protein)
chain: B5 chain with R108S
notes: as for B1
For the protein B6, the Km in data set [7] worked out at 15.1 ± 2.8 mM; in data set [8], 98.4 ± 25.7 mM. The figures for the Vmax in data set [7] and in data set [8] were 0.5 ± 0.02 umol substrate converted per minute per and 0.05 ± 0.01 umol substrate converted per minute per, respectively.

B7: Hxt15 (Saccharomyces cerevisiae S288C) (protein)
chain: MASEQSSPEINADNLNSSAADVHVQPPGEKEWSDGFYDKEVINGNTPDAPKRGFLGYLIIYLLCYPVSFGGFLPGWDSGITAGFINMDNFKMNFGSYKHSTGEYYLSNVRMGLLVAMFSVGCSIGGVAFARLADTLGRRLAIVIVVLVYMVGAIIQISSNHKWYQYFVGKIIYGLGAGGCSVLCPMLLSEIAPTDLRGGLVSLYQLNMTFGIFLGYCSVYGTRKYSNTAQWRIPVGLCFLWALIIIVGMLLVPESPRYLIECERHEEACVSIAKINKVSPEDPWVLKQADEINAGVLAQRELGEASWKELFSVKTKVLQRLITGILVQTFLQLTGENYFFFYGTTIFKSVGLTDGFETSIVLGTVNFFSTIIAVMVVDKIGRRKCLLFGAASMMACMVIFASIGVKCLYPHGQDGPSSKGAGNAMIVFTCFYIFCFATTWAPVAYIVVAESFPSKVKSKAMSISTAFNWLWQFLIGFFTPFITGSIHFYYGYVFVGCLVAMFLYVFFFLPETIGLSLEEIQLLYEEGIKPWKSASWVPPSRRGASSRETEAKKKSWKEVLKFPKSFN
notes: full-length ORF, p426H7 plasmid, expressed in hxt0 yeast EBY.VW4000 or AFY10 with a polyol dehydrogenase
As to B7, the Km in data set [4] amounted to 38.9 ± 8.6 mM; in data set [3] (facilitated transport), 11.4 ± 2.7 mM.
